Test results published in doi:10.1101/2024.12.02.626349.

Target: endogenous UBR4 tagged with FLAG at the UBR4 locus (human (endogenous in HEK293T)) (UniProt Q5T4S7)
Assay: cryo-EM structure

endogenous UBR4 tagged with FLAG at the UBR4 locus, sequence (Q5T4S7 whole entry): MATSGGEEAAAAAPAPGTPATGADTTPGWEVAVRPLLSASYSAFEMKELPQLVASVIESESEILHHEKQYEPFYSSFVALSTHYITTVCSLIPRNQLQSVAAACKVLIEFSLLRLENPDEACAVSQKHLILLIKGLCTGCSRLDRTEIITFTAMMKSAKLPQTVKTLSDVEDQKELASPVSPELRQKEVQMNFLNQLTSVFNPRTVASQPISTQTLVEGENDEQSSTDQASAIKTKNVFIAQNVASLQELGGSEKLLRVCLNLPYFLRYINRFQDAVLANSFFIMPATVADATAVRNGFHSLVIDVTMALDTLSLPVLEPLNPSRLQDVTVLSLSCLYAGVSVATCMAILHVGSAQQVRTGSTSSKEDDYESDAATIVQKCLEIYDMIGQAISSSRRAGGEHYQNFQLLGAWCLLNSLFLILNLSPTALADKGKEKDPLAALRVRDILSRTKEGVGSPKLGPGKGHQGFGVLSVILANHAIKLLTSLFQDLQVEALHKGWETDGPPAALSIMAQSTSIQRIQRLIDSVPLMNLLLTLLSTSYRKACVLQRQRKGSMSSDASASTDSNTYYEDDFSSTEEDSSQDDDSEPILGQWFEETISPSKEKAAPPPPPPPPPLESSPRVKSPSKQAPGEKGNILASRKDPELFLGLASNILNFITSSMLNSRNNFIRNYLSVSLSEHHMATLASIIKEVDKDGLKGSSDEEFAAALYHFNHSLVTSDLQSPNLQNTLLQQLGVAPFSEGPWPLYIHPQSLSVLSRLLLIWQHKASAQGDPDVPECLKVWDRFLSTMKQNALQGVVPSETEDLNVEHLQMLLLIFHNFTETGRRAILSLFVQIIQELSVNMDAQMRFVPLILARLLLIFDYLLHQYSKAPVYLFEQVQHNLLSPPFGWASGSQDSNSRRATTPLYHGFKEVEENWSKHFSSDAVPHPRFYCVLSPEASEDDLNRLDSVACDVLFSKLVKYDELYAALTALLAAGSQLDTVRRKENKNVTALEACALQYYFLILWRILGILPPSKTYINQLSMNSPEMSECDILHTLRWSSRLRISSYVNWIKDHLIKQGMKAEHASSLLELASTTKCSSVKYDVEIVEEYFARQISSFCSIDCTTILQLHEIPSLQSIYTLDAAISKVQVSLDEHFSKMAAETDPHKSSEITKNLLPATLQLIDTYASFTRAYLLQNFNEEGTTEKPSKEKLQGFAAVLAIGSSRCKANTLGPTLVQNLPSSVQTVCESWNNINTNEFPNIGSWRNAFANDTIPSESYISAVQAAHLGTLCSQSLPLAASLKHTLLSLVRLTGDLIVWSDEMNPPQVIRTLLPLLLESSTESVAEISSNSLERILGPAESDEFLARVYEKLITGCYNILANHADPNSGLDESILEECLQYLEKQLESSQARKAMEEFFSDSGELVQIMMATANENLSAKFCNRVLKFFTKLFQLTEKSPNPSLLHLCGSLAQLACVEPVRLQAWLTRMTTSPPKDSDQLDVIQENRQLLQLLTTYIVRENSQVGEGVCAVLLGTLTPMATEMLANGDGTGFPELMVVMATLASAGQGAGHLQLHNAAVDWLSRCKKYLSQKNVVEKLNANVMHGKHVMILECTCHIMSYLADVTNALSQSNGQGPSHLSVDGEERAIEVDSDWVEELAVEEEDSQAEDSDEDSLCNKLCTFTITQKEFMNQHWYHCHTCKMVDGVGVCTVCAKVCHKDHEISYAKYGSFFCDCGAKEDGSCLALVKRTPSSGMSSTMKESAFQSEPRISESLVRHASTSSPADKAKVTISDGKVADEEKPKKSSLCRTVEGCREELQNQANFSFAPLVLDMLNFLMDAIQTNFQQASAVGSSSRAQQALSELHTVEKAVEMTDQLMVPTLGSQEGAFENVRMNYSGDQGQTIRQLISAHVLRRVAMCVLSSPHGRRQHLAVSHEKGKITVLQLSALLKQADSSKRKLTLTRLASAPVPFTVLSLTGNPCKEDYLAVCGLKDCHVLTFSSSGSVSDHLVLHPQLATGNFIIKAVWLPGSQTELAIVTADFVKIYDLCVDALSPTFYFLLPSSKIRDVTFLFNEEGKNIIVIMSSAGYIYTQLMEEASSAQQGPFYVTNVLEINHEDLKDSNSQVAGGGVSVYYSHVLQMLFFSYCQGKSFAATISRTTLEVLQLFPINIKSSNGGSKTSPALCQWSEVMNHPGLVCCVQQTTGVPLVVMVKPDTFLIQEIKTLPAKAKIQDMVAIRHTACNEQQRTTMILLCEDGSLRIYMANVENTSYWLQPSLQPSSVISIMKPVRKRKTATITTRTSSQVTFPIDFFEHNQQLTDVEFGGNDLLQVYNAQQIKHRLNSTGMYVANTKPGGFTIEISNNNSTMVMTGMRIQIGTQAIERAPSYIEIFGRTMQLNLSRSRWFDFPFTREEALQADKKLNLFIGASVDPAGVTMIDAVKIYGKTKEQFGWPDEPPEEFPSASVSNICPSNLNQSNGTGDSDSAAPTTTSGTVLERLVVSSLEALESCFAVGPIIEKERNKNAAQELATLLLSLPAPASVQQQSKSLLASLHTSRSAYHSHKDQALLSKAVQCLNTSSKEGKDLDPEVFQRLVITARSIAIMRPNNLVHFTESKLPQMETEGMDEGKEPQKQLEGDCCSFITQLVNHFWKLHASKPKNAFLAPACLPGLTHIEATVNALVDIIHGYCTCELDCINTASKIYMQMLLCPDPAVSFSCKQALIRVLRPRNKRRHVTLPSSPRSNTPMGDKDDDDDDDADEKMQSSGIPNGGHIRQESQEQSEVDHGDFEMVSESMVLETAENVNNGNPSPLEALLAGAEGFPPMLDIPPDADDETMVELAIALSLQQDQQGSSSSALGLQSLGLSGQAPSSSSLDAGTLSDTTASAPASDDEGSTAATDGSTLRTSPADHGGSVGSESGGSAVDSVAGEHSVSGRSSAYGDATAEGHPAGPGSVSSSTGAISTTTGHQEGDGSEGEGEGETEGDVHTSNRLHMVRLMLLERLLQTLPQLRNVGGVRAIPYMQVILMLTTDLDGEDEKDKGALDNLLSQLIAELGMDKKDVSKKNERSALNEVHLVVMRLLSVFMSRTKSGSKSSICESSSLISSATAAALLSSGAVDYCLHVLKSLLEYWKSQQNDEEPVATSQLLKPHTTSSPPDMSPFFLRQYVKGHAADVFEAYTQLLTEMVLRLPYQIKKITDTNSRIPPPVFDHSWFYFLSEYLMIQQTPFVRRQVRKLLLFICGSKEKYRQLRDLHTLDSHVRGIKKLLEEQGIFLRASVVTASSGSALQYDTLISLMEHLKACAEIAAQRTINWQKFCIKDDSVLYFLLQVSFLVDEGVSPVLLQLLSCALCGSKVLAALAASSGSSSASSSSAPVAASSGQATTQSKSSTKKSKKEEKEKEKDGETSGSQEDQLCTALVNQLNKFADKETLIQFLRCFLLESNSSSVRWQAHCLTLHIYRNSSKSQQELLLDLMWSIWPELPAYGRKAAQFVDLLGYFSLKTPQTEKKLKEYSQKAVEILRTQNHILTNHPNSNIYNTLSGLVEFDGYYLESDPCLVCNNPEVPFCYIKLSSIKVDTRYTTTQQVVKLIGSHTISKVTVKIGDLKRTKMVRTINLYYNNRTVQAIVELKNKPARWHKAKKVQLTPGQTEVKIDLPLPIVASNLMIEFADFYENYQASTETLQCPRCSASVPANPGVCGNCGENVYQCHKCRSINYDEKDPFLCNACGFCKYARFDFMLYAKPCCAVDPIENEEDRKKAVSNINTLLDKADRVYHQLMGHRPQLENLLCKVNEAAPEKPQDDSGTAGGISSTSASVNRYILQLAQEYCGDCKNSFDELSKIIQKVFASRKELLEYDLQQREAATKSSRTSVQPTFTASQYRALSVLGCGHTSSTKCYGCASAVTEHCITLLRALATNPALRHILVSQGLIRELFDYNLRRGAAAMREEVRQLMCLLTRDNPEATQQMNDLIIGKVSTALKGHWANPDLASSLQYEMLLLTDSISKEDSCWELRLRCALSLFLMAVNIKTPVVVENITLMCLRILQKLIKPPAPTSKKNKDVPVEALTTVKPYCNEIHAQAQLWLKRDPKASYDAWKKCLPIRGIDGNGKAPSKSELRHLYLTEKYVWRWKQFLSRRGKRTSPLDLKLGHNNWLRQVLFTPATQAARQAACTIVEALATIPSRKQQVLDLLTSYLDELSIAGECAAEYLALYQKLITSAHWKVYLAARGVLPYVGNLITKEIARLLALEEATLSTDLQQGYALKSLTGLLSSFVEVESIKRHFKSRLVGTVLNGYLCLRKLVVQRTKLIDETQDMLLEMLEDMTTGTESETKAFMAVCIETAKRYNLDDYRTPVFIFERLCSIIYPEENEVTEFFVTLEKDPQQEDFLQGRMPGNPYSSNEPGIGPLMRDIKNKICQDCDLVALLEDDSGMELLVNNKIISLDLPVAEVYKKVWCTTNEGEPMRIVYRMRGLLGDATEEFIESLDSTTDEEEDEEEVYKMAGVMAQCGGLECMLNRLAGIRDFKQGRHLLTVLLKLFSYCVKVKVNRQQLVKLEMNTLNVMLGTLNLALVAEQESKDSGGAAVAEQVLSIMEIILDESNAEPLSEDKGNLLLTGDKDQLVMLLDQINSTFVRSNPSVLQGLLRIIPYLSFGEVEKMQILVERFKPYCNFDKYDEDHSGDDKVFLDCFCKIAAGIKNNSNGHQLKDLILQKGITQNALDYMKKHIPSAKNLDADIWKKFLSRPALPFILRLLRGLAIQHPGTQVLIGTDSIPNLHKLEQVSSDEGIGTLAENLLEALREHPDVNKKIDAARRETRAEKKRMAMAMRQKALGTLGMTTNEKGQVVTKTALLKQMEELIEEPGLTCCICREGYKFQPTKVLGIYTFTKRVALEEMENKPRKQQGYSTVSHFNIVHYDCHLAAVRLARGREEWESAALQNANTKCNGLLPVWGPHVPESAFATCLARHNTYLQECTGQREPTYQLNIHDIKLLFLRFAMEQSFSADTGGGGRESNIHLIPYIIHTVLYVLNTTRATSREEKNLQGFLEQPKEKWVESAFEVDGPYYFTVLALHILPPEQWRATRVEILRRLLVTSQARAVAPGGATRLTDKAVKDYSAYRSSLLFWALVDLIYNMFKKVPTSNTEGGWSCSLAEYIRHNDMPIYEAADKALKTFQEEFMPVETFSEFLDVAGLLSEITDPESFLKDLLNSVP

Q: How did the stoichiometry N turn out when “endogenous UBR4 tagged with FLAG at the UBR4 locus (from UniProt Q5T4S7-1 1-5183) (natural protein)” was run?
A: 2
